Experimental data: patent publication US6287813

Target: tTA (TetR-VP16) (/ Herpes simplex virus) (UniProt P04483)
Test: cell_activity
Conditions: CHO-TWIN195 without antibiotic; 8.57% with TET

tTA (TetR-VP16) (/ Herpes simplex virus), sequence (P04483 whole entry): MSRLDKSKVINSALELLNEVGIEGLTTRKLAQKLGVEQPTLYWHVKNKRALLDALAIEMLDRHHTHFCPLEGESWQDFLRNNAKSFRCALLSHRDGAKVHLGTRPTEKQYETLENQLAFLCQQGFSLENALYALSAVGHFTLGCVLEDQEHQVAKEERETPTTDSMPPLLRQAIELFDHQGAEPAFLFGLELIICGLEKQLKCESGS

**Q.** PhCMV*-1 (tet-responsive promoter) was tested. Which activity did it give?
**A.** The activity was 18.6 mU/ml SEAP.
